Data from patent publication US20200079851A1 (University of Texas, published 2020).

Legend:
human LILRB4 [1] = molecular target: T1, human LILRB4 (human, UniProt Q8NHJ6 22-259, limits assumed); assay: ELISA, OD450 against antibody concentration
T1 construct: also called leukocyte immunoglobulin-like receptor subfamily B member 4

SR = molecular target: T2, SR; assay: matrix of binding to LILRB4 domain-Fc fusions (FIG. 47); ELISA per paragraph 433
T2 construct: also called LILRB4 SR-hIgG1-Fc; stalk region of LILRB4 as Fc fusion
T2 sequence (fusion chain, as listed by the source): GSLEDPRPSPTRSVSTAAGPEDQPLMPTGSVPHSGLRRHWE

[2] = molecular target: T3, LILRB4 D1 (first Ig-like domain) Fc fusion protein (human, UniProt Q8NHJ6 27-118); assay: as above
T3 construct: also called D1 of LILRB4; not shown: Fc part
T3 sequence (Q8NHJ6 27-118): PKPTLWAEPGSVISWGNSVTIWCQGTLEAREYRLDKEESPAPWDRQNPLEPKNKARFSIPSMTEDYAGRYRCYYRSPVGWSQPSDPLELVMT

D2 = molecular target: T4, D2; assay: as above
T4 construct: also called LILRB4 D2-hIgG1-Fc; second Ig-like domain of LILRB4 as Fc fusion
T4 sequence (fusion chain, as listed by the source): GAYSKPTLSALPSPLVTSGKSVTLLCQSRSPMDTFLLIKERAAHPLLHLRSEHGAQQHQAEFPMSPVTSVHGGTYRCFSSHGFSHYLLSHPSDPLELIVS

LILRB5 [3] = molecular target: T5, LILRB5 (human, UniProt O75023 24-458, limits assumed); assay: cross-reactivity test on the LILRBs (ELISA per paragraph 433)
T5 sequence (O75023 24-458 limits assumed): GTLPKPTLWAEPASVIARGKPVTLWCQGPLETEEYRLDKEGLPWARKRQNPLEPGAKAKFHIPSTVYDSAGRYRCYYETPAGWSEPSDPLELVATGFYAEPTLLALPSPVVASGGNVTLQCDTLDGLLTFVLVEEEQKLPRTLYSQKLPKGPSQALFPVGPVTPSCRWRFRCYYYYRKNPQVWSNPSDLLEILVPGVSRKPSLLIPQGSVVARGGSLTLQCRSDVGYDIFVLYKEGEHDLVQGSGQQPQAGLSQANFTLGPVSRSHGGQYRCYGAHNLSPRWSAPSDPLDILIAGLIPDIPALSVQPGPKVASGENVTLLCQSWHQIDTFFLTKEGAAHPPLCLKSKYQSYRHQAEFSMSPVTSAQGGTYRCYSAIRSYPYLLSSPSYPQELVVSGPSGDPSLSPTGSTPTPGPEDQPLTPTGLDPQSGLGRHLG

LILRB3 = molecular target: T6, LILRB3 (human, UniProt O75022 24-443, limits assumed); assay: as above
T6 construct: also called leukocyte immunoglobulin-like receptor subfamily B member 3
T6 sequence (O75022 24-443 limits assumed): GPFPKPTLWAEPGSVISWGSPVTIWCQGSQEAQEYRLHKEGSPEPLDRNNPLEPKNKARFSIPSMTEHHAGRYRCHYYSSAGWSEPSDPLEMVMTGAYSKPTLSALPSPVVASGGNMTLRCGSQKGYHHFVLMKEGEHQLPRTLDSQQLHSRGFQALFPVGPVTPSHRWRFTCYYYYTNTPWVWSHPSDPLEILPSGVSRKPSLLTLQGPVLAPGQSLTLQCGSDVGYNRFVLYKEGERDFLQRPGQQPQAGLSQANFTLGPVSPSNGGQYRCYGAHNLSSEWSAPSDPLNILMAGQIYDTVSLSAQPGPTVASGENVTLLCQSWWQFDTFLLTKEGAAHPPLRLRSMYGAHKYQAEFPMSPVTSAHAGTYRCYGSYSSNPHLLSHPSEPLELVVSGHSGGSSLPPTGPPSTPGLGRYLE

LILRB2 = molecular target: T7, LILRB2 (human, UniProt Q8N423 22-458, limits assumed); assay: as above
T7 construct: also called leukocyte immunoglobulin-like receptor subfamily B member 2
T7 sequence (Q8N423 22-458 limits assumed): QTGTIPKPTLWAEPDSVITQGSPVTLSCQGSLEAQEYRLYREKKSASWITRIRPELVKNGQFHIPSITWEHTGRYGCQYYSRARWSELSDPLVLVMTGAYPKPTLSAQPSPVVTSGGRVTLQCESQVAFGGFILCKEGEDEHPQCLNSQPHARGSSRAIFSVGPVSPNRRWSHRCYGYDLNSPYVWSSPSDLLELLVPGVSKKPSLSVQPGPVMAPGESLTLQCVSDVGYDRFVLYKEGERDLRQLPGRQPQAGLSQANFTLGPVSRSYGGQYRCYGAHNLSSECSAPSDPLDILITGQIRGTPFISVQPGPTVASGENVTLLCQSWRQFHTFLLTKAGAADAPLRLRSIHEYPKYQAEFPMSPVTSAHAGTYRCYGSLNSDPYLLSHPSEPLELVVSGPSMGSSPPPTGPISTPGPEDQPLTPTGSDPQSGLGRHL

LILRB1 [4] = molecular target: T8, LILRB1 (human, UniProt Q8NHL6 24-458, limits assumed); assay: as above
T8 construct: also called leukocyte immunoglobulin-like receptor subfamily B member 1
T8 sequence (Q8NHL6 24-458 limits assumed): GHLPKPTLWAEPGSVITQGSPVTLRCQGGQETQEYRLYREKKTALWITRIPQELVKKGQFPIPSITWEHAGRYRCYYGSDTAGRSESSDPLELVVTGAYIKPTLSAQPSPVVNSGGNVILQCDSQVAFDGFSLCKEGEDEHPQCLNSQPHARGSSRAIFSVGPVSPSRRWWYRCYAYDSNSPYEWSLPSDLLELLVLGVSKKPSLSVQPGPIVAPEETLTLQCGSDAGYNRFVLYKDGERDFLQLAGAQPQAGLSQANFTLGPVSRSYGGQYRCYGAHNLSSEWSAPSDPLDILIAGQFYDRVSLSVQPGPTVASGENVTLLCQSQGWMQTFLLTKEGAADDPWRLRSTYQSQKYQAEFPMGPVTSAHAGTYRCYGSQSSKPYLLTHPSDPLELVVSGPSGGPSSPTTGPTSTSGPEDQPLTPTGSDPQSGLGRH

D2-SR-M1(139-259) = assay: ELISA, mAb titrated on D2-SR-M1(139-259)
D2-SR-M2(139-235) [5] = molecular target: T9, D2-SR-M2(139-235); assay: ELISA, mAb 8 titrated
T9 chain: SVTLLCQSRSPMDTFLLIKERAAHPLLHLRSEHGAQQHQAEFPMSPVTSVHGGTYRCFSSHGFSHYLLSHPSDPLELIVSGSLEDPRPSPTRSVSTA

D2-SR-M15(139-219) [6] = assay: ELISA, mAb 8 titrated
human LILRB4 [7] = molecular target: T1, human LILRB4; assay: ELISA
D2-SR-Fc = molecular target: T10, D2-SR-Fc; assay: ELISA, mAb titrated on D2-SR-wt(119-259)
T10 construct: also called D2-SR-WT
T10 sequence (Q8NHJ6 119-259): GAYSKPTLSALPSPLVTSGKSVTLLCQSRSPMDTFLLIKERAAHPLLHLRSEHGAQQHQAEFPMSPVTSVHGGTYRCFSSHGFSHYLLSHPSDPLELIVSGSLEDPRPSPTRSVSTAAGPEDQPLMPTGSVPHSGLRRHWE

LILRB5 [8] = molecular target: T5, LILRB5; assay: cross-reactivity ELISA (FIG. 46)
LILRB1 [9] = molecular target: T8, LILRB1; assay: cross-reactivity ELISA (FIG. 46)
D2-SR-M2(139-235) [10] = molecular target: T9, D2-SR-M2(139-235); assay: ELISA, mAb 216-2 titrated
D2-SR-M15(139-219) [11] = assay: ELISA, mAb 216-2 titrated
human LILRB4 [12] = molecular target: T1, human LILRB4; assay: ELISA, OD450 against antibody concentration; remark: listed apart in the source

Row | Binder | EC50 (human LILRB4 [1]) [µg/mL] | binding result (SR) | binding result [2] | binding result (D2) | binding result (LILRB5 [3]) | binding result (LILRB3) | binding result (LILRB2) | binding result (LILRB1 [4]) | EC50 (read off the curve) (D2-SR-M1(139-259)) [µg/mL] | binding result (D2-SR-M2(139-235) [5]) | binding result (D2-SR-M15(139-219) [6]) | EC50 (human LILRB4 [7]) [nM] | EC50 (read off the curve) (D2-SR-Fc) [µg/mL] | binding result (LILRB5 [8]) | binding result (LILRB1 [9]) | binding result (D2-SR-M2(139-235) [10]) | binding result (D2-SR-M15(139-219) [11]) | EC50 (human LILRB4 [12]) [µg/mL]
1 | anti-LILRB4 rabbit monoclonal antibody #8 (antibody, V domains shown, also called mAb 8) VH: QSVKESGGGLVTPGGTLTLTCTASGFSLISYDMYWVRQAPGKGLEYIGIIYSDGYTFYATGAKGRITISRTSTTVDLKITSPTTEDTATYFCATNAFALWGQGTLVTISS VL: ELDLTQTPSSVSAAVGGTVTISCQSSQNVYNNNWLVWLQQKPGQPPKRLIYTASSLASGVPSRFAGSGSATQFTLTISDLECGDAATYYCAGGYSGPIYTFGGGTEVEIK | 0.00943 | binds | no binding | no binding | no binding | no binding | no binding | no binding | ~0.03 | no binding (tested: 1000 ng/ml) | no binding (tested: 1000 ng/ml) | 0.0629 | ~0.03 |  |  |  |  | 
2 | anti-LILRB4 rabbit monoclonal antibody #216-2 (antibody, V domains shown) VH: EQSLKESGGRLVTPGTPLTLTCTVSGIDLSSYAMTWVRQVPGKGLEYIGFINIVGIAGYATWAKGRFTISKTSTTVDLKVTSPTTEDTATYFCARNWIRLDLWGQGTLVTVSS VL: ELVMTQTPASVSAAVGGTVTISCQSSESLYKKNYLSWFQQKPGQPPKLLIYEASKLASGVPSRFSGSGSGTQFTLTISDVQCDDAASYYCLGDYTNGRDTTFGGGTEVEIK |  | binds | no binding | no binding |  |  |  |  |  |  |  | 0.0647 |  | binds | binds | no binding (tested: 1000 ng/ml) | no binding (tested: 1000 ng/ml) | 0.0097
